In US20120208765:

Experiments:
[1] = target: T1, neurotrypsin-resistant mouse agrin C44 y4z8K/A (m)
T1 chain: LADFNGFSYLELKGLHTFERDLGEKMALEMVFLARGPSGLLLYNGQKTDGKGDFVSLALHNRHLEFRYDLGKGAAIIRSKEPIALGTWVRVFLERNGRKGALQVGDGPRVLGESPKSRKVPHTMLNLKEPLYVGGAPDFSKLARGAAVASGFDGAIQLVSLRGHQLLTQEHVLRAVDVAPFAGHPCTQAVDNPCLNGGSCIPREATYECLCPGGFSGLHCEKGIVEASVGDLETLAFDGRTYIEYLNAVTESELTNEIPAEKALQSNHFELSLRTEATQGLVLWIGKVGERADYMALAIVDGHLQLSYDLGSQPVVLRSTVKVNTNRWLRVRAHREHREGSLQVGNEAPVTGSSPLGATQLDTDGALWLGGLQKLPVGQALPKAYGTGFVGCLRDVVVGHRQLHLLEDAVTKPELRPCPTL

[2] = target: T2, neurotrypsin-resistant human agrin C44 y4z8K/A with N-terminal His8 tag (C44K/A)
T2 chain: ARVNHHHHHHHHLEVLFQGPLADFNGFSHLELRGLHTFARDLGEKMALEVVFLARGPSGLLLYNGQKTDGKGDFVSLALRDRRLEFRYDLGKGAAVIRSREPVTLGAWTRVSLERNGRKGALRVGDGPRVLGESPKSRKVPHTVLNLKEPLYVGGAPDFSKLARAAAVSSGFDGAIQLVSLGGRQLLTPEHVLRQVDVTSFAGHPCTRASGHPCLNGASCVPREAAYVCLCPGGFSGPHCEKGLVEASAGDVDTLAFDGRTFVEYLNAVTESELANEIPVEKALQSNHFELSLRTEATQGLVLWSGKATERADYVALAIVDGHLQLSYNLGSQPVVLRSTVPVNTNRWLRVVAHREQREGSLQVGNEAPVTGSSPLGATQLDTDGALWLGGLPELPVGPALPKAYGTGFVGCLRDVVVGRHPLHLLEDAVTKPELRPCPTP

[3] = target: T3, neurotrypsin-resistant human agrin C44 y4z0K/A
T3 chain: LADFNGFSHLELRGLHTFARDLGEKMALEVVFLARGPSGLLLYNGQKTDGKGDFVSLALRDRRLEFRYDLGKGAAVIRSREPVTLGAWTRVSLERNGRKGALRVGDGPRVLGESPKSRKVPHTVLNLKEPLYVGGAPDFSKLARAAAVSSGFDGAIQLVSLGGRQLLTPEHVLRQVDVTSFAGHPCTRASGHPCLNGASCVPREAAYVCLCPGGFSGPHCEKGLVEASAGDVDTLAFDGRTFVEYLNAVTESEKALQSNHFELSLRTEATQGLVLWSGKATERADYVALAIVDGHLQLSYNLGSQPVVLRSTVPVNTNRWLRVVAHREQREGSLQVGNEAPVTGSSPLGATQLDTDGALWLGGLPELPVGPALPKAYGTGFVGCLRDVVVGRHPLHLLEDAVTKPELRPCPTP

human agrinC44 y4z8 = target: T4, human agrinC44 y4z8
T4 chain: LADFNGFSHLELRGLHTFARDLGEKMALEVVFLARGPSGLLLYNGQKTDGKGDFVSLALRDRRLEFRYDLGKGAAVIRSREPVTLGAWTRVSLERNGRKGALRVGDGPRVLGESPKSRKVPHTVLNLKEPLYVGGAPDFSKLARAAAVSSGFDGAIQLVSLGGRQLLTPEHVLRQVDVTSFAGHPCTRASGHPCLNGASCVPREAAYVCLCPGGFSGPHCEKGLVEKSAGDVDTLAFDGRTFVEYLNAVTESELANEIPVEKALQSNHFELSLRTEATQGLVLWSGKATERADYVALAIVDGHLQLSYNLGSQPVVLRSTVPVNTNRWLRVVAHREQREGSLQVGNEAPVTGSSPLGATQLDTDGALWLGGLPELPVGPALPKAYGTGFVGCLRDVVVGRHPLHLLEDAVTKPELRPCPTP

[4] = target: T5, neurotrypsin-resistant human agrin C44 y0z8K/A (h)
T5 chain: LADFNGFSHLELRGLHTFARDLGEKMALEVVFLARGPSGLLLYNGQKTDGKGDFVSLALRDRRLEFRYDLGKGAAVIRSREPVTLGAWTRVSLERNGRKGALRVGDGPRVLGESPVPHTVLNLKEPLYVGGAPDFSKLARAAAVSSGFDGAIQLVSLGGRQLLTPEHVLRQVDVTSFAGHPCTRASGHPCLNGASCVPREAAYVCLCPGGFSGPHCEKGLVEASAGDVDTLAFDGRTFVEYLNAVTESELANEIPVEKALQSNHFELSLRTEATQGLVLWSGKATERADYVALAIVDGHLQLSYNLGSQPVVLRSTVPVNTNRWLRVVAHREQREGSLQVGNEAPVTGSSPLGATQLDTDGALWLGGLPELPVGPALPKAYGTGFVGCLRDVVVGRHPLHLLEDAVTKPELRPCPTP

[5] = target: T6, neurotrypsin-resistant mouse agrin C44 y0z8K/A (m)
T6 chain: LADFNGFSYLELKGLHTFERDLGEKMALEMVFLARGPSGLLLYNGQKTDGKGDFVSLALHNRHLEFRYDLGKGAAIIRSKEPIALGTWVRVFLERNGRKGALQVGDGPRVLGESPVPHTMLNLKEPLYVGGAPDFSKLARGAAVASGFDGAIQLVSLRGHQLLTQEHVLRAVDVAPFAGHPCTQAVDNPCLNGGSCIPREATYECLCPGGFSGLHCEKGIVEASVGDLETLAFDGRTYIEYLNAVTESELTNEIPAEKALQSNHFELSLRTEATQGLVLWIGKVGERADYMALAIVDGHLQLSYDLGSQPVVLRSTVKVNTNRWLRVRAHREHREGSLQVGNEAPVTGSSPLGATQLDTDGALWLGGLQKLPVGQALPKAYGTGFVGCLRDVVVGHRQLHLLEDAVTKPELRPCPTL

B1: human neurotrypsin (protein)
chain: FDSVLNDSLHHSHRHSPPAGPHYPYYLPTQQRPPRTRPPPPLPRFPRPPRALPAQRPHALQAGHTPRPHPWGCPAGEPWVSVTDFGAPCLRWAEVPPFLERSPPASWAQLRGQRHNFCRSPDGAGRPWCFYGDARGKVDWGYCDCRHGSVRLRGGKNEFEGTVEVYASGVWGTVCSSHWDDSDASVICHQLQLGGKGIAKQTPFSGLGLIPIYWSNVRCRGDEENILLCEKDIWQGGVCPQKMAAAVTCSFSHGPTFPIIRLAGGSSVHEGRVELYHAGQWGTVCDDQWDDADAEVICRQLGLSGIAKAWHQAYFGEGSGPVMLDEVRCTGNELSIEQCPKSSWGEHNCGHKEDAGVSCTPLTDGVIRLAGGKGSHEGRLEVYYRGQWGTVCDDGWTELNTYVVCRQLGFKYGKQASANHFEESTGPIWLDDVSCSGKETRFLQCSRRQWGRHDCSHREDVSIACYPGGEGHRLSLGFPVRLMDGENKKEGRVEVFINGQWGTICDDGWTDKDAAVICRQLGYKGPARARTMAYFGEGKGPIHVDNVKCTGNERSLADCIKQDIGRHNCRHSEDAGVICDYFGKKASGNSNKESLSSVCGLRLLHRRQKRIIGGKNSLRGGWPWQVSLRLKSSHGDGRLLCGATLLSSCWVLTAAHCFKRYGNSTRSYAVRVGDYHTLVPEEFEEEIGVQQIVIHREYRPDRSDYDIALVRLQGPEEQCARFSSHVLPACLPLWRERPQKTASNCYITGWGDTGRAYSRTLQQAAIPLLPKRFCEERYKGRFTGRMLCAGNLHEHKRVDSCQGDSGGPLMCERPGESWVVYGVTSWGYGCGVKDSPGVYTKVSAFVPWIKSVTKL
proteolytic digestion by human neurotrypsin, SDS-PAGE (FIG. 11) [1]: the C44K/A-fragments as shown in the FIGS. 2b and 7-10 are not digested by neurotrypsin
proteolytic digestion by human neurotrypsin, SDS-PAGE (FIG. 11) [2]: the C44K/A-fragments as shown in the FIGS. 2b and 7-10 are not digested by neurotrypsin
proteolytic digestion of the agrin fragment by human neurotrypsin, SDS-PAGE (Sypro ruby) [2]: The mutation K to A in the β-cleavage site efficiently abolishes a cleavage of the agrin fragment
proteolytic digestion by human neurotrypsin, SDS-PAGE (FIG. 11) [3]: the C44K/A-fragments as shown in the FIGS. 2b and 7-10 are not digested by neurotrypsin
proteolytic digestion of the agrin fragment by human neurotrypsin, SDS-PAGE (Sypro ruby); control substrate with intact β-cleavage site, cleavage implied (human agrinC44 y4z8): The mutation K to A in the β-cleavage site efficiently abolishes a cleavage of the agrin fragment
proteolytic digestion by human neurotrypsin, SDS-PAGE (FIG. 11) [4]: the C44K/A-fragments as shown in the FIGS. 2b and 7-10 are not digested by neurotrypsin
proteolytic digestion by human neurotrypsin, SDS-PAGE (FIG. 11) [5]: the C44K/A-fragments as shown in the FIGS. 2b and 7-10 are not digested by neurotrypsin
